Measured values from patent publication US20150246949A1, “Desmoglein 2 (DSG2) Binding Proteins and Uses Therefor” (UNIVERSITY OF WASHINGTON THROUGH ITS CENTER FOR …, priority 2012, published 2015).
“Also recorded” adds a separate entry of the source.

B1: D261N (protein)
chain: MKVSALKEKVSALKEKVSALKEKVSALKEKVSALKEGSGGGSGGGSGGGSNSIALKNNTLWTGPKPEANCIIEYGKQNPDSKLTLILVKNGGIVNGYVTLMGASDYVNTLFKNKNVSINVELYFDATGHILPDSSSLKTDLELKYKQTADFSARGFMPSTTAYPFVLPNAGTHNENYIFGQCYYKASNGALFPLEVTVMLNKRLPDSRTSYVMTFLWSLNAGLAPETTQATLITSPFTFSYIREDD
B2: JO-4 (protein)
chain: MKVSALKEKVSALKEKVSALKEKVSALKEKVSALKEGSGGGSGGGSGGGSNSIALKNNTLWTGPKPEANCIIEYGKQNPDSKLTLILVKNGGIVNGYVTLMGASDYVNTLFKNKNVSINVELYFDATGHILPDSSSLKTDLELKYKQTADFSARGFMPSTTAYPFVLPNAGTHNENFIFGQCYYKASDGALFPLEVTVMLNKRLPDSRTSYVMTFLWSLNAGLAPETTQATLITSPFTFSYIREDD

Key:
Ad3-GFP virus = assay: Competition of Ad3-GFP virus infection on HeLa cells; assay type: cell-based, adenovirus serotype 3 (Ad3); conditions: HeLa cells pre-incubated with knob, 100 pfu/cell Ad3-GFP, GFP at 18 hours
Procedure: FIG. 3. Competition of Ad3 virus by dimerized Ad3 knob mutants. A) Relative attachment of ^3H-labeled Ad3 virus in the presence of dimeric fiber knob mutants. 1.8×10^5 HeLa cells were incubated with Ad3 knob mutants at a concentration of 2.5 and 100 μg/ml on ice for 1 hour. Then 400 pfu/cell of ^3H-Ad3 virus was added on ice for another hour. Unbound virus particles were washed away. Attachment of virus particles incubated with PBS was taken as 100%. N=3. B) Competition of Ad3-GFP virus infection on HeLa cells. 1.5×10^5 HeLa cells were seeded into 24 well plates. Cells were incubated with the Ad3 knob mutants at increasing concentrations for one hour at room temperature. 100 pfu/cell of Ad3-GFP virus were then added and GFP expression was analyzed 18 hours later by flow cytometry. Left panel: percentage of GFP positive cells. Right panel: mean fluorescence intensity. N=3. The standard deviation was less than 10%. C) Relative attachment of ^3H-labeled Ad3 virus in the presence of dimeric fiber knob mutants with multiple mutations. The study was performed as described in […]) The standard deviation was less than 10%. D) Competition of Ad3-GFP virus infection on HeLa cells. The study was performed as described in C) The standard deviation was less than 10%.
FIG. 9. Analysis of dimeric Ad3 fiber knob mutants with increased affinity to DSG2. A) Competition of Ad3-GFP virus infection on HeLa cells with dimeric affinity-enhanced mutant Y250F and JO-1 (dimeric wt Ad3 fiber knob). The experimental setting is as described for FIG. 3C. left panel: percentage of GFP positive cells. Right panel: mean fluorescence intensity. N=3. The standard deviation was less than 10%. […] 100 pfu/cell of Ad3GFP virus were then added and GFP expression was analyzed 18 hours later. […]
Competition studies were performed on HeLa cells, which express DSG2 (42). […] Transduction was measured based on GFP expression (FIG. 3B). […] Dimeric Ad3 knob mutants with combined mutations were also analyzed for their ability to compete with Ad3 virus for attachment (FIG. 3C) and infection (FIG. 3D).

[1] = system: MDA-MB-231 orthotopic TNBC tumors; assay: Enhancement of nab-paclitaxel/cetuximab therapy in triple negative breast cancer model; assay type: in vivo, CB17 SCID-beige mice; conditions: 2 mg/kg i.v. 1 hour before cetuximab 10 mg/kg i.p. and nab-paclitaxel 5 mg/kg i.v., weekly; N=10
Procedure: FIG. 10. Combination of affinity-enhanced JO-1 versions with chemotherapy. A) Enhancement of irinotecan (I) therapy. The experimental setting was the same as in FIG. 5B. […] N=5. […] Mammary fat pad tumors were established from primary ovarian cancer ovc316 cells. Treatment was started when tumors reached a volume of 100 mm^3 Mice were injected intravenously with 2 mg/kg JO-1 or with 0.5 mg/kg JO-4, followed by an intravenous injection of PEGylated liposomal doxorubicin (PLD) (1 mg/kg) one hour later. Treatment was repeated weekly. […] A total of 4×10^6 TNBC MDA-MB-231 cells were injected into the mammary fat pad of CB17 SCID-beige mice. JO-4 (2 mg/kg) was intravenously injected 1 hour before the application of cetuximab (C) (10 mg/kg, i.p.) and nab-paclitaxel (nab-P) (5 mg/kg, i.v). Treatment was given weekly. N=10 P<0.01 at day 25 for nab-P+C vs JO-4+nab-P+C.
A549, MDA-MB-231, and ovc316 xenograft tumors were established by injection of the corresponding tumor cells into the mammary fat pad (1:1 with Matrigel) of CB17 mice. TC1-DSG2 tumors were established by subcutaneous injection of TC1-DSG2 cells into DSG2 transgenic mice. […] Tumor volumes were measured three times a week. […]

Molecule | Competition of Ad3-GFP infection based on GFP expression (Ad3-GFP virus) | Enhancement of nab-paclitaxel/cetuximab therapy [1]
B1 | least reduced | 
B2 |  | significantly increased nab-paclitaxel/cetuximab therapy; also recorded: enhances therapy
